{"source": "the DeepSol protein solubility set", "data": [{"experiment": "soluble on expression in E. coli; label from the status in PepcDB or PDB records", "values": [{"sequence": "MGSDKIHHHHHHMEKIAVAENLRAYYFIKSGDKTTSIRAVDNVSLHFFENEVYGIAGESGCGKSTLLKVLFGEIKPPLKLVDGEVVFKLDGEEYRINSMSLDQLKKIRWKYVSYVPQGSMSVLNPVRKIRRIFLDVIEEHTSMSREEAFSRIESYFEALGLPVRVLDSYPHQLSGGMRQRVTIALATVLNPKVIFADEPTTALDVVVQRGVIQLLKKIHKEQKNTLVIVTHDMGVHAHLATRIGVMYAGRLIEEAETHEIFKNPLHPYTRFLINSLPRFGDRSRKEGTPGSPPSLANLPSGCPFHPRCPIADQICMEMEPDLIEVARNHKVACWKVGVER", "soluble on expression in E. coli": "not soluble"}, {"sequence": "MSLCRVLSVKPSSYYDWINRDISSQQIHRNQSELLIKAAHSETKERYGFERLHAHLNEQGYDISPYMVRNIKEEHGIKCRRHKRFKVTTDSNHNKLIYDNVLDQQFDVNRPNEAWVSDITYIWTTEGWLYLAGVKDLYTKELVGYAINKRMTADLVCKALNMAIKNKRPSKGLIVHSDRGGQYCSHAYHKIIKQHQFKGSMSGKGNCYDNAPIESFWGVLKNELVYHQDYKTRFAAITDIIRYIELYYNQTRIQKGLGYKSPRQVWFDYYRQAAEGHHHHHH", "soluble on expression in E. coli": "soluble"}, {"sequence": "MSEPTYFMPPEWAPHASTWLSWPHKLESWPGKFEPVPAVFAELAYQLSRSETVNINVLDDAMEAQARELLKERDPEGKYAERIVFHRIPTNDAWCRDHGPNYVIRTQDGRRDKVIMNWEYNAWGGKYEPYDDDNAVPERVAKAQGLPMVSTGMVLEGGAIDVNGAGLLLTTTACLLNPNRNPSLGKAEIEAQLRRYLGIEKVLWLGDGIAGDDTDGHVDDMARFVNENTVVIAVEEDPEDENYKPLRENYELLKTMTGLDGKPLNIVKLPMPEPVYYDGERLPASYANFYIANTVVLVPTYRCPRDQQAIDILQQCFPKREVVGIDCSDLIWGLGAIHCVTHEEPAMLEHHHHHH", "soluble on expression in E. coli": "soluble"}, {"sequence": "SLVSSMHDLLLRNVRPMAGEACDIMIRNGKITGFGKFDAEPGLPVEDGKGAIAVPGLIDAHTHLDKTTWGMPWHVNNRAAILRERIDFERENRVQIGIDPHRQSMRHAIGLAANGGTHIRSHVDIDPTHGLKLVEGIWETREKLDGIIDIEVVAFPQSGVMVMPGTVELLDEALKQGCEVLGGIDPCGIDRDPKGQLDILFQLATKHGVPIDIHLHEAADLGAFTMELIFERIRANGMQGNVAISHAFALGMNDYLRVGRLIDEIARLDVAILTTGAPSASVPSIMRLKEAGVRVGGGCDGIRDTWGPWGQPDMLDRAKIIGMKNGLRSDVELAHVLHVVSRGGADVMGIEDYGMEIGCAADFTLLTGETLAHAVVDITPRPLVVKGGRVTARNGKAIVEAP", "soluble on expression in E. coli": "soluble"}, {"sequence": "PQEKLIFTLDSADRAYRVLVEAMNEGTATLASDGTILYCNRQFAELTKMSSGAVVGTSIYGFIAPEDAITFKALLKQKNSVGELKFRAQGGTSVPVYLSISSLQSEGSPSAWCLVVTDL", "soluble on expression in E. coli": "not soluble"}, {"sequence": "MENQPKLNSSKEVIAFLAERFPHCFSAEGEARPLKIGIFQDLVERVGGEMNLSKTQLRSALRLYTSSWRYLYGVKPGATRVDLDGNPCGELEEQHVEHARKQLEEAKARVQAQRAEQQAKKREAAAAAGEKEDAPRRERKPRPVARRKEGAERKPRADKPTTKAPRAPREEKHTPVSDISVLTVGQSLKVKAGNNAMDATVLEITKDGVRVQLNSGMSLIVRAEHLVF", "soluble on expression in E. coli": "not soluble"}, {"sequence": "NPGENPKAQKALKQLFDGAQKDDIHLYKISGYRSYPTQVKLYNNYVKRDGKKAADKYSARPGYSEHQTGLTFDVGGVDSDKNLYASFGKTEEGRWIAKNAHNYGFIIRYPKNKESITGYQYEPWHLRYLGKKKATKVYKSGETLEEFVGLK", "soluble on expression in E. coli": "not soluble"}, {"sequence": "MTPIEAKFARLSTDHAPDQEVRQGNAGLDGLLRGDTLPGTPVDFSHGDVNTSAFAPTPGSLQEFVQGVERGGEQAYTEYRGAADLRLRVAAHLAEFTGAPVDGANELIITPGTQGALFLAIASSVTAGDKVAIVRPDYFANRKLVEFLGDEIVPVDMRHLERDSGAGLDLDQLEAAFKAGVRTFLFSNPNNPAGVVYSPEEIAQIADLARHYDATVIVDQLYSRLLYTGTRYTHLRALPQAPANVITIMGPSKTESLSGYRLGVAFGAAHLIDRMEKLQAIVSLRAPGYCQAVLRTWFQEPAGWMNERIAQHQAIRDDLIRVLRAVPGLAVRAPEAGSYLFPRLPRLAVGLHDFVRILRTQAGVTVTPGTEFSPHADDSIRLNFSQNHAAAVQAIERTAQLIERYRA", "soluble on expression in E. coli": "not soluble"}, {"sequence": "MGSDKIHHHHHHMVTGASGFVGSALCCELARTGYAVIAVVRRVVERIPSVTYIEADLTDPATFAGEFPTVDCIIHLAGRAHILTDKVADPLAAFREVNRDATVRLATRALEAGVKRFVFVSSIGVNGNSTRQQAFNEDSPAGPHAPYAISKYEAEQELGTLLRGKGMELVVVRPPLIYANDAPGNFGRLLKLVASGLPLPLDGVRNARSLVSRRNIVGFLSLCAEHPDAAGELFLVADGEDVSIAQMIEALSRGMGRRPALFTFPAVLLKLVMCLLGKASMHEQLCGSLQVDASKARRLLGWVPVETIGAGLQAAGREYILRQRERRK", "soluble on expression in E. coli": "not soluble"}, {"sequence": "MAIIASTFGTGLSYAGELPFKPVTGGEVGRKQQRMVVVRAEGGGGINPEIRKNEDKVVDSVVVTELSKNITPYCRCWRSGTFPLCDGSHVKHNKANGDNVGPLLLKKQ", "soluble on expression in E. coli": "soluble"}, {"sequence": "PEKKKRKRGSRGGKKGRKSRIANIPNFEQSLKNLVVSEKILGYGSSGTVVFQGSFQGRPVAVKRMLIDFCDIALMEIKLLTESDDHPNVIRYYCSETTDRFLYIALELCNLNLQDLVESKNVSDENLKLQKEYNPISLLRQIASGVAHLHSLKIIHRDLKPQNILVSTSSRFTADQQTGAENLRILISDFGLCKKLDSGQSSFRTNLNNPSGTSGWRAPELLEESTKRRLTRSIDIFSMGCVFYYILSKGKHPFGDKYSRESNIIRGIFSLDEMKCLHDRSLIAEATDLISQMIDHDPLKRPTAMKVLRHPLFWPKSKKLEFLLKVSDRLEIENRDPPSALLMKFDAGSDFVIPSGDWTVKFDKTFMDNLERYRKYHSSKLMDLLRALRNKYHHFMDLPEDIAELMGPVPDGFYDYFTKRFPNLLIGVYMIVKENLSDDQILREFLYS", "soluble on expression in E. coli": "soluble"}, {"sequence": "NIVLTQSPKSMSVSVGERVTLSCKASENVDTYVFWFQQKPDQSPKLLLYGPSNRYTGVPDRFTGSGSTTDFTLTISSVQAEDLADYHCGQSYSYPYTFGGGTKLEIKRADAAPTVSIFPPSSEQLTSGGASVVCFLNNFYPKDINVKWKIDGSERQNGVLNSWTDQDSKDSTYSMSSTLTLTKDEYERHNSYTCEATHKTSTSPIVKSFNRNEC", "soluble on expression in E. coli": "soluble"}, {"sequence": "LMINDVPGLVTAWWDEELQALRIKWFTEYAEGSAVADAVEFAMTYVNENGVKNWLCDLSESQEALKAEDQEWVQTEFKRLIAESSLEKVVLIPPLPETGQDTEWLKDWEANTKRDYGGQIDARLLSEEGEIQRFFEKG", "soluble on expression in E. coli": "not soluble"}, {"sequence": "MSLSNAMTSKLERFIDQGVGRVPADIVLKGGCFFDLVTGELVQSDIAIGADRIVGTSGNYEGETEIDISGRIVVPGFIDTHLHIESSLVTPHEFDRCVLPYGVTTAICDPHEIANVLGAAGIEFFLESALETIMDIRVQLSSCVPATHLETSGADLPIESLLPYRHHPKVIGLAEFMNFPGVIHKDPICMAKLDAFQGGHIDGHAPLLSGNDLNGYLAAGIRTEHECTTASEALEKIRKGVHILVREGSVSKDLAALMPIITERLSPFLALCTDDRNPLDIAEQGHLDHMIRTAIASRVEPLAIYRAASISAARAFGLKDRGLVAPGWRADLVVLDSLENCRADMVFSAGRRVTDALFSSRRPVAPIGLDSVKARPVNAAHFGVPVAEGETPVIGVIPGKIITEHRRYRLPVRGNEAAVDLANDIIKVAVIERHGKNGNHANGFVQGFGLKKGAIASTVGHDSHNICVVGVSEDDMARAANRLSEIKGGFVVVEDGKVTGEIALPIAGLMSLEPYETVRDTLHQLRKAAFALGATLEEPFLQLAFLPLPVIPHLKISDRGMVDVDKFALIGEGHHHHHH", "soluble on expression in E. coli": "soluble"}, {"sequence": "MGSDKIHHHHHHMLCNETTSTRDLILLGLKRHGERSVGEMAKELEITEMAVRRHIQALEKDGFVQTKLVRQAMGRPTTKYLLTEKGEERFPRNYLPLTLGFLKDIEELSGIDMIHVLFEKRKERLLAEYANQMKGCSFSERVEVLAQIQNDNGYMVEWKKIDDDTYQFIEYNCPISQVAKAYPVACACEKKLFKELLQTEAVVDNCCAAKDEAGYCSYTLKKPSVDG", "soluble on expression in E. coli": "not soluble"}, {"sequence": "MSLYKVTRGKSEQYLKDERALEDYLIATGLDDCAFKLANGEVRGGRDLLALVEDARAIRSTLHNLHSRYNRSVVEQAAIAGVLSPRITTDIATANEAAAYIARRLDALADEVERGWVGHFTEGEGFRFERTVRGVKEVAAIDDAMLGSADARKLDEYAAVLQEVYPRPGVLRRKEAETAIHGPISLFEAVTDAGRKGVALQRYKGLGEMNPSQLWETTLDTNARSLLQVKVREVDEADDIFTKLMGDVVEPRREFIQENSLHATVDVEGHHHHHH", "soluble on expression in E. coli": "soluble"}, {"sequence": "MGSDKIHHHHHHMAIACVFTRASCGVEAPRVTVEVHLSNGLPAFNLVGLPETSVKEAKERVRSALINAGFEFPQKRITVNLAPADLPKQGGRYDLPIAVGILAASNQVPAKALHQCEFVGGLALSGQIRPCSGLLPAIIAARNDQHHFFMPIENRHEAELVGYKHSYFVAHLQNLAAFLHGQAQLPLLDTLPEWIEEEIQAQSSLCMSDVIGQYQAKHGLEIAAAGGHNMLFIGPPGTGKSMLANRIIPLLPKLTYDEAIEVAAIHSVAGLHVKPQNFLNRPFRSPHHTSSSIALIGGGSHPKPGEISLAHRGILFLDEIAEFPRKVLDCLREPLETGQVEISRAAAKLTFLSRFQLIAAMNPSPCGDTERARSTPDQIQRYLSRLSGPFLDRFDLTVDVPKLPAGTLTQQHQPSESSVEIAKRVKQARDLQLSRSGVLNSELTPKQLKQDGAITQPDLAFLEQSVVSLGLSVRSFHRIQRVSRTIADLQQSPTTERSHIAQALGYRAMDRLLAKLNQQ", "soluble on expression in E. coli": "not soluble"}, {"sequence": "ATGAAAAAATCAATCCTCAAATCTGTGTTAGCGTCTTCTATTACGCTTTCTATCACGCTAAGCAGCACTGCTTTCGCCTCTCCTATCGTGACACCAGACGCACCACAAATTGCCGCTAAAGGCTATGTACTGATGGATTACCATTCAGGAAAAGTGTTGGCTGAAAAAGAGATGGATACCAAACTCTCTCCTGCCAGCCTAACCAAGATGATGACCAGTTACGTGATCGGTCAAGAAGTAAAGCGTGGCAACATCTCGCTAAATGACGATGTCGTGATCAGCAAAAATGCTTGGGCGAAAAACTTCCCTGATTCTTCGAAAATGTTCGTTGAAGTCGGTACCACGGTTAAGGTCAGCGATCTCAACCGCGGCATCATCATCCAATCGGGTAATGATGCGTGTGTAGCGATGGCAGAGCACGTCGCAGGGACGGAAGATGCGTTTGTTGACCTGATGAACGCTTGGGCAAGCTCACTTGGGATGAAGAATTCGCACTTCACTAACTCTCACGGTTTGGACGATCCTAATCTTTACTCTACGCCATACGATCTGGCTCTACTTGGCCAAGCTCTGATCCGTGAWGTGCCTGAAGAGTACGCGATCTACTCCGAGCAAAAATTCACCTACAACGGCATCACTCAATACAACCGTAACGGTTTGCTTTGGGATAAAAGCATGAATGTGGACGGCATTAAAACCGGACATACGAGTGGTGCTGGCTATAACCTCGTGAGCTCTGCTACAGAAGGCAACATGCGCTTGGTTGCGGTGGTGATGGGTACTGACAACGAAAACGCGCGTAAAGCGGAAAGTAAGAAGCTACTGAGCTACGGTTTCCGCTTCTTTGAAACCGTGGCACCACACAAAGCGGGTGAAACTTTCGTGAATGAAACCATCTGGATGGGCGATAAAGACACGATTGCACTCGGTGTTGATAAAGATACTTACGTAACTTTGCCACGCGGACAGGCCAAAGATCTCACCGCCAGCTTTGTACTTGAAAAACAATTGAAAGCACCGCTGAAGAAAGGCGATATCGTCGGCACACTTTACTATCAATTAGCTGGTAACGATATTGCTCAATACCCATTGCTCGCACTGGAAGATGTGCAAGAAGGCAGCCTATTTAGCCGCCTATGGGATTACTTGGTTCTGCTGTTCAAAAGCTGGTTTTAA", "soluble on expression in E. coli": "not soluble"}]}]}
